Laboratory results reported in PMC8025756.
Read-outs that look alike come from different tables or passages of the source.

Assays:
[1] = target: two-chain factor VII-activating protease (tcFSAP) (human); test: enzyme inhibition kinetics
[2] = target: two-chain factor VII-activating protease (tcFSAP) (human); test: enzyme inhibition kinetics; remark: listed apart in the source
[3] = target: two-chain factor VII-activating protease (tcFSAP) (human); test: enzyme inhibition kinetics; remark: listed apart in the source
[4] = target: two-chain factor VII-activating protease (tcFSAP) (human); test: enzyme inhibition kinetics; remark: listed apart in the source
[5] = target: two-chain factor VII-activating protease (tcFSAP) (human); test: SDS-stable complex formation, SDS-PAGE and Western blot
[6] = target: two-chain factor VII-activating protease (tcFSAP) (human); test: enzyme inhibition kinetics; remark: listed apart in the source

second-order inhibition rate constant Ka [1]: 558000 M⁻¹ s⁻¹ | second-order inhibition rate constant Ka [2]: 623000 M⁻¹ s⁻¹ | second-order inhibition rate constant Ka [3]: 1.61e+06 M⁻¹ s⁻¹ | second-order inhibition rate constant Ka [4]: 443000 M⁻¹ s⁻¹ | stoichiometry N [5]: 1 | second-order inhibition rate constant Ka [6]: 338000 M⁻¹ s⁻¹
Substance: recombinant human wild-type plasminogen activator inhibitor-1 (PAI-1) (from UniProt P05121 24-402) (natural protein)
